Literature values in PMC3490216.

Tests used:
VPAC2 receptor = VPAC2 receptor (UniProt P41587)
VPAC1 receptor = VPAC1 receptor (UniProt P32241)
Chain of UniProt P32241 (P32241 31-457): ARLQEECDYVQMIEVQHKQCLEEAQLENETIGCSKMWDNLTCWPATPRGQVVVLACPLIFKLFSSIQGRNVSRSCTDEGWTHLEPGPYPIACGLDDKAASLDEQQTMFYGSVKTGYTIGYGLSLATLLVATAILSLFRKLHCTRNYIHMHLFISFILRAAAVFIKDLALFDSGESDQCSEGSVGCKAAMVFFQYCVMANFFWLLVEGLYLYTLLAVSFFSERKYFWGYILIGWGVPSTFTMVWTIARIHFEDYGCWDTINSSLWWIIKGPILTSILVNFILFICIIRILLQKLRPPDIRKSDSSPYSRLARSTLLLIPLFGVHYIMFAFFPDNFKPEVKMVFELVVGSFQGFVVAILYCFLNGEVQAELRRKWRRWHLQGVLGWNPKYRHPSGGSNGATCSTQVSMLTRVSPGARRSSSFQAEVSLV

Chain of UniProt P41587 (P41587 24-438): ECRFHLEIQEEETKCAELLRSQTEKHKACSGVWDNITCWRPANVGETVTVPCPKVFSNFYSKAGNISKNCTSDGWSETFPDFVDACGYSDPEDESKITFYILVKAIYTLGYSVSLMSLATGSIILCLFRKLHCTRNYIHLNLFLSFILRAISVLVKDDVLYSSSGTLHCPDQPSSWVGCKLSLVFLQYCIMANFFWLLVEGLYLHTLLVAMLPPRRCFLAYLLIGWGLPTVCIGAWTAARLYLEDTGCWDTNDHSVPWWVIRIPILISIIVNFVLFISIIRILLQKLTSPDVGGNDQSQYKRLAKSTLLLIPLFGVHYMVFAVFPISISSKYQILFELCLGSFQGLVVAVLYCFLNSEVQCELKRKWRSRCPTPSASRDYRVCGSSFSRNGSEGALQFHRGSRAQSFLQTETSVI

- Kd (VPAC2 receptor): 3 nM
- Kd (VPAC1 receptor): 3 nM
Substance: VIP (from UniProt P01282)
